Data on eleven molecules can be found in US20140154255A1 (AbbVie / Abbott, published 2014).

Assay [1] addresses T1, human VEGF-A residues 27-191 of Accession #AAV38412 (human, UniProt P15692 27-191).
T1 construct: range 27-191
As to the kind of experiment: BIAcore SPR. How it is done:
(§1) The binding kinetics and affinity of the antibodies for VEGF (human VEGF-A residues 27-191 of Accession #AAV38412) was determined by using a BIAcore T200 surface plasmon resonance system (BIAcore, GE Healthcare, Piscataway, N.J.). Coupling running buffer was HBS-EP+ running buffer (10 mM HEPES, 150 mM sodium chloride, 3 mM EDTA 0.05% P-20, pH 7.4); assay running buffer was HBS-EP+ with 300 mM sodium chloride and 0.1 mg/mL BSA (Sigma A7906). Polyclonal goat anti-human Fc (Thermo Scientific prod#31125) was first immobilized to the biosensor surface in 10 mM sodium acetate, pH 4.5 using standard BIAcore amine coupling reagents (N-ethyl-N′-dimethylamino-propylcarbodiimide, EDC; N-hydroxysuccinimide, NHS; and ethanolamine HCl, pH 8.5). For binding kinetics assay a series of cycles were performed, each cycle consisted of 1) mAb capture, 2) Ag or buffer injection, 3) dissociation phase and 4) regeneration. Briefly, anti-VEGF antibodies were captured on parallel surfaces at a low flow rate of 10 μL/min. Capture levels were kept low to minimize avidity due to the dimeric nature of VEGF. No capture of the antibody was made on the reference surface to serve for primary referencing and as a negative control. Subsequently, VEGF or buffer only was injected to all flow cells at a flow rate of 80 μL/min for three minutes to monitor association followed by a 20-minute flow of assay rinning buffer at a flow rate of 80 μL/min to monitor dissociation. […] At the end of each cycle the surface was regenerated with 10 mM glycine, pH 1.5 at a flow rate of 60 μL/min in pulses of 60 and 10 sec. Binding data were fit to the 1:1 Langmuir model with mass transport term included using Biacore T200 Evaluation Software to determine the binding constants.
On the technique in general: SPR reads the build-up and loss of mass on a sensor chip optically.

Assay [2] deals with T1, human VEGF-A residues 27-191 of …. The experiment in a line: BIAcore SPR, KD WT/KD mutant. Here is the method: as §1
Assay [3] deals with T2, unlabeled human VEGF (ELISA coat) (human, UniProt P15692-4 27-191, limits assumed). The experiment in a line: ELISA 1 hr, EC50 WT/EC50 mutant. How it is done:
(§2) To detect identified variants binding to antigen, ELISA plates (Nunc-Immuno MaxiSorp plates, Nalge Nunc, Rochester, N.Y.) were coated overnight at 4° C. with unlabeled human VEGF at 1 μg/mL in 0.2 M sodium carbonate-bicarbonate buffer (pH 9.4, Pierce, Rockford, Ill.). The plates were then blocked with SuperBlock Blocking Buffer (Pierce, Rockford, Ill.) for 30 min and washed with Washing Buffer (PBS containing 0.1% Tween 20). All the washing steps were performed for three times. […] The plates were washed and 100 μL of goat anti-human kappa HRP-conjugated antibody (Southern Biotech, Birmingham, Ala.) diluted at 1:1000 in ELISA buffer was added to each well. After 30 minutes of incubation, plates were washed and bound antibodies were detected by addition of TMB 1 Component HRP Microwell substrate (BioFx #TMBW-1000-01). The reaction was terminated by addition of 100 μL/well of 650 nM Stop Reagent for TMB Microwell substrate and the absorbance was measured at 650 nm using a VERSAmax microplate reader (Molecular Devices, Sunnyvale, Calif.). Data were fitted using nonlinear regression with the software […]
In general terms: In an ELISA, binding on a coated surface is turned into a signal by an enzyme label.

Assay [4] concerns the target T2, unlabeled human VEGF (ELISA coat). As to the kind of experiment: ELISA overnight, EC50 WT/EC50 mutant. How it is done: as §2

T2 sequence (P15692 other isoform, or with tags, fused parts or gaps limits assumed): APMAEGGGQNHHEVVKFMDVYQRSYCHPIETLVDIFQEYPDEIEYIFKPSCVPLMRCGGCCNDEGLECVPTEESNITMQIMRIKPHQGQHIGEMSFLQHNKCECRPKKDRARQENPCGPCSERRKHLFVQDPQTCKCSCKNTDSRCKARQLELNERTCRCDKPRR
T1 sequence (P15692 other isoform, or with tags, fused parts or gaps limits assumed): as above

B1: T30 K (anti-VEGF IgG) (antibody, V domains shown)
VH: EVQLVESGGGLVQPGGSLRLSCAASGYTFKNYGMNWVRQAPGKGLEWVGWINTYTGEPTYAADFKRRFTFSLDTSKSTAYLQMNSLRAEDTAVYYCAKYPHYYGSSHWYFDVWGQGTLVTVSS
VL: DIQMTQSPSSLSASVGDRVTITCSASQDISNYLNWYQQKPGKAPKVLIYFTSSLHSGVPSRFSGSGSGTDFTLTISSLQPEDFATYYCQQYSTVPWTFGQGTKVEIK
notes: copies: 2 + 2
The Kd is a measure of binding affinity in units of concentration. A lower Kd goes with higher affinity. In general, koff refers to the first-order rate constant of dissociation. A lower koff goes with slow dissociation. Usually kon stands for a measure of how fast the partners come together. A lower kon goes with slow association. Consider B1, for which, in assay [1], the Kd is 0.92 nM, the koff came to 8.53e-05 s⁻¹ and the kon stood at 92800 M⁻¹ s⁻¹. Further, the affinity improvement in assay [2] came to 0.5 fold. For the same molecule, in assay [3], the “ELISA 1hr binding” value stood at 2.5 fold. In assay [4], this molecule gave an ELISA o/n binding of 3.1 fold.

B2: N31 Y (anti-VEGF IgG) (antibody, V domains shown)
VH: EVQLVESGGGLVQPGGSLRLSCAASGYTFTYYGMNWVRQAPGKGLEWVGWINTYTGEPTYAADFKRRFTFSLDTSKSTAYLQMNSLRAEDTAVYYCAKYPHYYGSSHWYFDVWGQGTLVTVSS
VL: DIQMTQSPSSLSASVGDRVTITCSASQDISNYLNWYQQKPGKAPKVLIYFTSSLHSGVPSRFSGSGSGTDFTLTISSLQPEDFATYYCQQYSTVPWTFGQGTKVEIK
notes: copies: 2 + 2
In assay [1], B2 came in with a dissociation constant (Kd) of 0.077 nM, an off-rate constant (koff) of 1.77e-05 s⁻¹ and a kon of 230000 M⁻¹ s⁻¹. Moreover, in assay [2], the affinity improvement was 6.6 fold. Further, the “ELISA 1hr binding” value in assay [3] was found to be 3 fold. This molecule returned an ELISA o/n binding in assay [4] of 1.5 fold.

B3: H97 A (anti-VEGF IgG) (antibody, V domains shown)
VH: EVQLVESGGGLVQPGGSLRLSCAASGYTFTNYGMNWVRQAPGKGLEWVGWINTYTGEPTYAADFKRRFTFSLDTSKSTAYLQMNSLRAEDTAVYYCAKYPAYYGSSHWYFDVWGQGTLVTVSS
VL: DIQMTQSPSSLSASVGDRVTITCSASQDISNYLNWYQQKPGKAPKVLIYFTSSLHSGVPSRFSGSGSGTDFTLTISSLQPEDFATYYCQQYSTVPWTFGQGTKVEIK
notes: copies: 2 + 2
In assay [1], B3 registered a Kd of 2.2 nM, a koff of 0.000451 s⁻¹ and an association rate constant (kon) of 205000 M⁻¹ s⁻¹. Besides, the affinity improvement in assay [2] was found to be 0.2 fold. The “ELISA 1hr binding” value in assay [3] came out at 4 fold. In addition, in assay [4], the ELISA o/n binding was found to be 3.4 fold.

B4: S100a Q (anti-VEGF IgG) (antibody, V domains shown)
VH: EVQLVESGGGLVQPGGSLRLSCAASGYTFTNYGMNWVRQAPGKGLEWVGWINTYTGEPTYAADFKRRFTFSLDTSKSTAYLQMNSLRAEDTAVYYCAKYPHYYGQSHWYFDVWGQGTLVTVSS
VL: DIQMTQSPSSLSASVGDRVTITCSASQDISNYLNWYQQKPGKAPKVLIYFTSSLHSGVPSRFSGSGSGTDFTLTISSLQPEDFATYYCQQYSTVPWTFGQGTKVEIK
notes: copies: 2 + 2
In assay [1], B4 yielded a Kd of 0.451 nM, a koff of 6.04e-05 s⁻¹ and an on-rate constant (kon) of 134000 M⁻¹ s⁻¹. In addition, the affinity improvement in assay [2] amounted to 1.1 fold. Also, in assay [3], the “ELISA 1hr binding” value was determined as 3.7 fold. Besides, the ELISA o/n binding in assay [4] was found to be 3.6 fold.

B5: T28 G (anti-VEGF IgG) (antibody, V domains shown)
VH: EVQLVESGGGLVQPGGSLRLSCAASGYGFTNYGMNWVRQAPGKGLEWVGWINTYTGEPTYAADFKRRFTFSLDTSKSTAYLQMNSLRAEDTAVYYCAKYPHYYGSSHWYFDVWGQGTLVTVSS
VL: DIQMTQSPSSLSASVGDRVTITCSASQDISNYLNWYQQKPGKAPKVLIYFTSSLHSGVPSRFSGSGSGTDFTLTISSLQPEDFATYYCQQYSTVPWTFGQGTKVEIK
notes: copies: 2 + 2
In assay [1], B5 yielded a Kd of 0.374 nM, a koff of 4.97e-05 s⁻¹ and a kon of 133000 M⁻¹ s⁻¹. Besides, the affinity improvement in assay [2] was 1.3 fold. Further, in assay [3], the “ELISA 1hr binding” value was 5.4 fold. This molecule also displayed an ELISA o/n binding in assay [4] of 3.9 fold.

B6: N31 W (anti-VEGF IgG) (antibody, V domains shown)
VH: EVQLVESGGGLVQPGGSLRLSCAASGYTFTWYGMNWVRQAPGKGLEWVGWINTYTGEPTYAADFKRRFTFSLDTSKSTAYLQMNSLRAEDTAVYYCAKYPHYYGSSHWYFDVWGQGTLVTVSS
VL: DIQMTQSPSSLSASVGDRVTITCSASQDISNYLNWYQQKPGKAPKVLIYFTSSLHSGVPSRFSGSGSGTDFTLTISSLQPEDFATYYCQQYSTVPWTFGQGTKVEIK
notes: copies: 2 + 2
In assay [1], B6 showed a dissociation constant Kd of 0.164 nM, a dissociation rate constant (koff) of 3.42e-05 s⁻¹ and an association rate constant (kon) of 209000 M⁻¹ s⁻¹. Moreover, in assay [2], the affinity improvement was 3.1 fold. Besides, the “ELISA 1hr binding” value in assay [3] is 2.1 fold. Moreover, the ELISA o/n binding in assay [4] came to 1.3 fold.

B7: S100a T (anti-VEGF IgG) (antibody, V domains shown)
VH: EVQLVESGGGLVQPGGSLRLSCAASGYTFTNYGMNWVRQAPGKGLEWVGWINTYTGEPTYAADFKRRFTFSLDTSKSTAYLQMNSLRAEDTAVYYCAKYPHYYGTSHWYFDVWGQGTLVTVSS
VL: DIQMTQSPSSLSASVGDRVTITCSASQDISNYLNWYQQKPGKAPKVLIYFTSSLHSGVPSRFSGSGSGTDFTLTISSLQPEDFATYYCQQYSTVPWTFGQGTKVEIK
notes: copies: 2 + 2
In assay [1], B7 gave a Kd of 0.197 nM, a koff of 4.15e-05 s⁻¹ and an association rate constant (kon) of 211000 M⁻¹ s⁻¹. This molecule also yielded an affinity improvement in assay [2] of 2.2 fold. Besides, the “ELISA 1hr binding” value in assay [3] is 2.3 fold. In assay [4], this molecule yielded an ELISA o/n binding of 2.7 fold.

B8: N31 H (anti-VEGF IgG) (antibody, V domains shown)
VH: EVQLVESGGGLVQPGGSLRLSCAASGYTFTHYGMNWVRQAPGKGLEWVGWINTYTGEPTYAADFKRRFTFSLDTSKSTAYLQMNSLRAEDTAVYYCAKYPHYYGSSHWYFDVWGQGTLVTVSS
VL: DIQMTQSPSSLSASVGDRVTITCSASQDISNYLNWYQQKPGKAPKVLIYFTSSLHSGVPSRFSGSGSGTDFTLTISSLQPEDFATYYCQQYSTVPWTFGQGTKVEIK
notes: copies: 2 + 2
Take B8: in assay [1], the equilibrium dissociation constant (Kd) is 0.172 nM, the off-rate (koff) was found to be 3.17e-05 s⁻¹ and the on-rate (kon) turned out to be 184000 M⁻¹ s⁻¹. The molecule also gave an affinity improvement in assay [2] of 2.5 fold. For the same molecule, the “ELISA 1hr binding” value in assay [3] came to 2.2 fold. Further, the ELISA o/n binding in assay [4] turned out to be 1.9 fold.

B9: N31 L (anti-VEGF IgG) (antibody, V domains shown)
VH: EVQLVESGGGLVQPGGSLRLSCAASGYTFTLYGMNWVRQAPGKGLEWVGWINTYTGEPTYAADFKRRFTFSLDTSKSTAYLQMNSLRAEDTAVYYCAKYPHYYGSSHWYFDVWGQGTLVTVSS
VL: DIQMTQSPSSLSASVGDRVTITCSASQDISNYLNWYQQKPGKAPKVLIYFTSSLHSGVPSRFSGSGSGTDFTLTISSLQPEDFATYYCQQYSTVPWTFGQGTKVEIK
notes: copies: 2 + 2
For B9, in assay [1], the Kd came out at 0.278 nM, the off-rate constant (koff) is 6.05e-05 s⁻¹ and the kon was determined as 218000 M⁻¹ s⁻¹. In assay [2], this molecule yielded an affinity improvement of 1.8 fold. The “ELISA 1hr binding” value in assay [3] was found to be 1.1 fold. For the same molecule, the ELISA o/n binding in assay [4] stood at 1.1 fold.

B10: S100a G (anti-VEGF IgG) (antibody, V domains shown)
VH: EVQLVESGGGLVQPGGSLRLSCAASGYTFTNYGMNWVRQAPGKGLEWVGWINTYTGEPTYAADFKRRFTFSLDTSKSTAYLQMNSLRAEDTAVYYCAKYPHYYGGSHWYFDVWGQGTLVTVSS
VL: DIQMTQSPSSLSASVGDRVTITCSASQDISNYLNWYQQKPGKAPKVLIYFTSSLHSGVPSRFSGSGSGTDFTLTISSLQPEDFATYYCQQYSTVPWTFGQGTKVEIK
notes: copies: 2 + 2
In assay [1], B10 gave an equilibrium dissociation constant (Kd) of 0.602 nM, a dissociation rate constant (koff) of 0.000133 s⁻¹ and an on-rate (kon) of 221000 M⁻¹ s⁻¹. For the same molecule, the affinity improvement in assay [2] is 0.8 fold. Further, the “ELISA 1hr binding” value in assay [3] came out at 3.7 fold. In addition, the ELISA o/n binding in assay [4] was found to be 3.7 fold.

B11: S100a A (anti-VEGF IgG) (antibody, V domains shown)
VH: EVQLVESGGGLVQPGGSLRLSCAASGYTFTNYGMNWVRQAPGKGLEWVGWINTYTGEPTYAADFKRRFTFSLDTSKSTAYLQMNSLRAEDTAVYYCAKYPHYYGASHWYFDVWGQGTLVTVSS
VL: DIQMTQSPSSLSASVGDRVTITCSASQDISNYLNWYQQKPGKAPKVLIYFTSSLHSGVPSRFSGSGSGTDFTLTISSLQPEDFATYYCQQYSTVPWTFGQGTKVEIK
notes: copies: 2 + 2
As for B11, in assay [1], the affinity, expressed as Kd, was 0.337 nM; the off-rate (koff) amounted to 7.68e-05 s⁻¹; the kon stood at 228000 M⁻¹ s⁻¹. The affinity improvement in assay [2] was determined as 1.3 fold. Moreover, the “ELISA 1hr binding” value in assay [3] is 2.2 fold. For the same molecule, the ELISA o/n binding in assay [4] was 2.1 fold.
